According to patent publication US20140155331A1 (published 2014):
Where no end group is shown, it is not given here. [ ]: non-standard residue; d: D form. Aib = CC(C)(N)C(=O)O

B1: S100B (other)
chain: MSELEKAMVALIDVFHQYSGREGDKHKLKKSELKELINNELSHFLEEIKEQEVVDKVMETLDNDGDGECDFQEFMAFVAMVTTACHEFFEHE
B2: pBDC-TRTK (pBM-TRTK dimerised with a properly designed crosslinker) (peptide)
peptide: fluorescein-TRTKIDW[Aib]KIL[Aib]GGGCG
modifications: not fully specified (residue 16); also: homodimer: two copies joined at Cys16 through BMH, linker at 16 via BMH, other end not in the chain

Assays:
[1] = biological target: pBDC-53; assay: fluorescence anisotropy
[2] = biological target: B1; assay: fluorescence anisotropy

| Kd [1] [nM] | Kd [2] [nM] | Binder |
| --- | --- | --- |
| 267 |  | B1 |
|  | 4600 | fluorescein-QST[Aib]RH[Aib]KLMFKT[Aib]G [pBM-53 (Aib substituted p53 monomer peptide)] |
|  | 32 | B2 |
